# In the Immune Epitope Database (IEDB):
# Assays:
# [1] = biological target: HLA-A*02:03; test: IEDB peptide-MHC binding, purified MHC/competitive/radioactivity; filed as Kd, often an IC50 or EC50 that approximates it; ≥ and ≤ were set here for values at or beyond the usual limits of such assays
# [2] = biological target: HLA-A*02:01; test: as above
# [3] = biological target: HLA-A*02:06; test: as above
# [4] = biological target: HLA-A*02:02; test: as above
# [5] = biological target: HLA-A*68:02; test: as above
# [6] = biological target: HLA-A*11:01; test: as above; settings: source organism: Vaccinia virus WR
# [7] = biological target: HLA-B*35:01; test: as above; settings: source organism: Vaccinia virus WR
# [8] = biological target: HLA-B*54:01; test: as above; settings: source organism: Vaccinia virus WR
# [9] = biological target: HLA-A*68:01; test: as above; settings: source organism: Vaccinia virus WR
# [10] = biological target: HLA-A*03:01; test: as above; settings: source organism: Vaccinia virus WR
# [11] = biological target: HLA-A*33:01; test: as above; settings: source organism: Vaccinia virus WR
# [12] = biological target: HLA-B*51:01; test: as above
# [13] = biological target: HLA-B*07:02; test: as above; settings: source organism: Vaccinia virus WR
# [14] = biological target: HLA-B*53:01; test: as above; settings: source organism: Vaccinia virus WR
# [15] = biological target: HLA-A*31:01; test: as above; settings: source organism: Vaccinia virus WR
# [16] = biological target: HLA-A*24:02; test: as above
# [17] = biological target: HLA-A*23:01; test: as above
# [18] = biological target: HLA-A*30:02; test: as above
# [19] = biological target: HLA-A*01:01; test: as above
# [20] = biological target: HLA-A*30:01; test: as above
# [21] = biological target: HLA-A*29:02; test: as above
# [22] = biological target: HLA-A*32:01; test: as above
# [23] = biological target: HLA-A*26:01; test: as above
# [24] = biological target: HLA-B*18:01; test: IEDB peptide-MHC binding, purified MHC/direct/fluorescence; filed as Kd, often an IC50 or EC50 that approximates it; ≥ and ≤ were set here for values at or beyond the usual limits of such assays
# [25] = biological target: HLA-B*44:03; test: IEDB peptide-MHC binding, purified MHC/competitive/radioactivity; filed as Kd, often an IC50 or EC50 that approximates it; ≥ and ≤ were set here for values at or beyond the usual limits of such assays; settings: source organism: Dengue virus 1 Brazil/97-11/1997
# [26] = biological target: HLA-A*02:01; test: IEDB peptide-MHC binding, purified MHC/direct/fluorescence; filed as Kd, often an IC50 or EC50 that approximates it; ≥ and ≤ were set here for values at or beyond the usual limits of such assays; settings: source organism: Juquitiba virus
# [27] = biological target: HLA-A*03:01; test: as above; settings: source organism: Araucaria virus
# [28] = biological target: HLA-B*27:03; test: IEDB peptide-MHC binding, purified MHC/competitive/fluorescence; filed as Kd, often an IC50 or EC50 that approximates it; ≥ and ≤ were set here for values at or beyond the usual limits of such assays; settings: source organism: Hantavirus HPR/02-73
# [29] = biological target: HLA-B*57:01; test: as above; settings: source organism: Hantavirus HPR/02-73
# [30] = biological target: HLA-B*51:01; test: as above; settings: source organism: Hantavirus HPR/02-73
# [31] = biological target: HLA-B*18:01; test: as above; settings: source organism: Hantavirus HPR/02-73
# [32] = biological target: HLA-A*26:01; test: as above; settings: source organism: Hantavirus HPR/02-73
# [33] = source organism: Human immunodeficiency virus type 1 (SF33 ISOLATE)
# [34] = source organism: Vaccinia virus WR
# [35] = source organism: Dengue virus 1 Brazil/97-11/1997
# [36] = source organism: Mammarenavirus brazilense
# [37] = source organism: Mammarenavirus whitewaterense
# [38] = source organism: Dengue virus 1 Singapore/S275/1990
# [39] = source organism: Trypanosoma cruzi
# [40] = source organism: Mammarenavirus guanaritoense
# [41] = source organism: Lassa virus Josiah
# [42] = source organism: Dengue virus 4 Philippines/H241/1956
# [43] = source organism: Dengue virus 2 Jamaica/1409/1983
sequence,measurement,setting,value
ALIRILQQL,Kd,[1]; [33],0.00299 µM
same,Kd,[2]; [33],0.0281 µM
same,Kd,[3]; [33],8.2 nM
same,Kd,[4]; [33],0.00331 µM
same,Kd,[5]; [33],≥ 65300 nM
ATLMKTSCSK,Kd,[1]; [34],≥ 70.4 µM
same,Kd,[6],0.0199 µM
same,Kd,[2]; [34],≥ 69.4 µM
same,Kd,[7],≥ 69.9 µM
same,Kd,[8],≥ 69.9 µM
same,Kd,[3]; [34],≥ 69800 nM
same,Kd,[9],4.95 µM
same,Kd,[4]; [34],≥ 70 µM
same,Kd,[10],0.0336 µM
same,Kd,[5]; [34],≥ 69800 nM
same,Kd,[11],≥ 70 µM
same,Kd,[12]; [34],≥ 69.6 µM
same,Kd,[13],≥ 21.6 µM
same,Kd,[14],≥ 69.9 µM
same,Kd,[15],0.411 µM
AYAQMWSLM,Kd,[16]; source organism: Dengue virus 3 Martinique/1243/1999,0.0121 µM
CWCNATDTW,Kd,[17]; [35],0.711 µM
DTGNYILCY,Kd,[18]; [36],18 µM
same,Kd,[19]; [36],0.273 µM
same,Kd,[20]; [36],2.44 µM
same,Kd,[21]; [36],1.41 µM
same,Kd,[22]; [36],≥ 24.8 µM
same,Kd,[23]; [36],5.73 µM
ELINIPYCNY,Kd,[18]; [37],0.0888 µM
same,Kd,[19]; [37],15.8 µM
same,Kd,[20]; [37],≥ 70.4 µM
same,Kd,[21]; [37],1.81 µM
same,Kd,[22]; [37],≥ 28.3 µM
same,Kd,[23]; [37],0.227 µM
EVDSFSLGLL,Kd,[5]; [38],146 nM
same,Kd,[23]; [38],1.93 µM
FANYNFTLV,Kd,[1]; [39],≥ 78.1 µM
same,Kd,[3]; [39],0.00585 nM
same,Kd,[4]; [39],0.0226 µM
same,Kd,[5]; [39],0.0102 nM
FPFGDVWNY,Kd,[24]; source organism: Listeria innocua,0.0014 µM
FYSEESPTEY,Kd,[18]; [40],≥ 27 µM
same,Kd,[19]; [40],0.192 µM
same,Kd,[20]; [40],≥ 48.7 µM
same,Kd,[21]; [40],0.0801 µM
same,Kd,[22]; [40],≥ 69.9 µM
same,Kd,[23]; [40],7.36 µM
GARVIWMDAY,Kd,[6],5.51 µM
same,Kd,[9],0.978 µM
same,Kd,[10],1.02 µM
same,Kd,[11],0.505 µM
same,Kd,[21]; [34],≥ 55.6 µM
same,Kd,[15],0.22 µM
GLVGLVTFLL,Kd,[1]; [41],0.122 µM
same,Kd,[2]; [41],0.049 µM
same,Kd,[3]; [41],2060 nM
same,Kd,[4]; [41],0.191 µM
same,Kd,[5]; [41],214 nM
GLYNFATCGL,Kd,[1]; [41],0.00227 µM
same,Kd,[3]; [41],218 nM
same,Kd,[4]; [41],0.00512 µM
same,Kd,[5]; [41],≥ 5000 nM
GWKNWQEVPF,Kd,[17]; [42],0.43 µM
same,Kd,[16]; [42],0.19 µM
ILNAMITKI,Kd,[2]; source organism: Homo sapiens,0.095 µM
IMTSYQYLII,Kd,[2]; [41],1 µM
KEVSGVKGF,Kd,[24]; source organism: Yellow fever virus,0.5 µM
LLFASMGFK,Kd,[1]; [34],0.183 µM
same,Kd,[6],0.00171 µM
same,Kd,[2]; [34],4.83 µM
same,Kd,[7],≥ 41.6 µM
same,Kd,[8],≥ 78.1 µM
same,Kd,[3]; [34],16700 nM
same,Kd,[9],0.0126 µM
same,Kd,[4]; [34],0.294 µM
same,Kd,[10],0.000874 µM
same,Kd,[5]; [34],≥ 36300 nM
same,Kd,[11],2.94 µM
same,Kd,[12]; [34],≥ 77.5 µM
same,Kd,[13],≥ 77.5 µM
same,Kd,[14],≥ 78.2 µM
same,Kd,[15],0.0556 µM
LLGMWGIAAI,Kd,[1]; [39],0.00316 µM
same,Kd,[2]; [39],0.0143 µM
same,Kd,[3]; [39],9.58 nM
same,Kd,[4]; [39],0.0243 µM
same,Kd,[5]; [39],≥ 42200 nM
LLQYWSQEL,Kd,[2]; source organism: HIV-1 M:B_MN,0.189 µM
LTFIRSTMPL,Kd,[5]; [42],19.8 nM
same,Kd,[12]; [42],1.52 µM
same,Kd,[23]; [42],7.41 µM
LVGLLSNAAS,Kd,[1]; [39],0.395 µM
same,Kd,[2]; [39],11.2 µM
same,Kd,[3]; [39],1330 nM
same,Kd,[4]; [39],1.72 µM
same,Kd,[5]; [39],4310 nM
LVGLVTFLL,Kd,[2]; [41],0.641 µM
MTTEDMLAV,Kd,[3]; [43],7.01 nM
same,Kd,[19]; [43],2.7 µM
same,Kd,[5]; [43],10.8 nM
same,Kd,[23]; [43],0.623 µM
MWHVTRGSVI,Kd,[17]; [42],1.08 µM
same,Kd,[16]; [42],1.28 µM
PYMPTVIEEL,Kd,[16]; [42],0.211 µM
QYVYMGQPL,Kd,[16]; [35],4.52 µM
RLTQSHPIL,Kd,[2]; [41],1.67 µM
RPDTRHLRVL,Kd,[1]; [34],≥ 70.4 µM
same,Kd,[6],≥ 69.8 µM
same,Kd,[2]; [34],≥ 69.4 µM
same,Kd,[7],≥ 69.9 µM
same,Kd,[8],≥ 69.9 µM
same,Kd,[3]; [34],≥ 69800 nM
same,Kd,[9],≥ 70.2 µM
same,Kd,[4]; [34],≥ 70 µM
same,Kd,[10],≥ 70.1 µM
same,Kd,[5]; [34],≥ 69800 nM
same,Kd,[11],≥ 70 µM
same,Kd,[12]; [34],≥ 69.6 µM
same,Kd,[13],0.0117 µM
same,Kd,[14],≥ 69.9 µM
same,Kd,[15],≥ 70 µM
SFIEVKSCHW,Kd,[17]; [43],0.461 µM
SFIEVKTCIW,Kd,[25],1.26 µM
same,Kd,[17]; [35],0.0173 µM
TYGLNTFTNM,Kd,[17]; [43],4.92 µM
VTLITGNMSF,Kd,[16]; [43],11.5 µM
VTNLISETLK,Kd,[1]; [34],≥ 70.4 µM
same,Kd,[6],0.00847 µM
same,Kd,[2]; [34],≥ 69.4 µM
same,Kd,[7],≥ 69.9 µM
same,Kd,[8],≥ 69.9 µM
same,Kd,[3]; [34],17300 nM
same,Kd,[9],0.0944 µM
same,Kd,[4]; [34],≥ 70 µM
same,Kd,[10],0.409 µM
same,Kd,[5]; [34],≥ 34900 nM
same,Kd,[11],≥ 34.2 µM
same,Kd,[12]; [34],≥ 69.6 µM
same,Kd,[13],≥ 69.6 µM
same,Kd,[14],≥ 69.9 µM
same,Kd,[15],3.27 µM
YILGFAIPI,Kd,[26],0.0003 µM
same,Kd,[27],≥ 20 µM
same,Kd,[28],≥ 20 µM
same,Kd,[29],≥ 20 µM
same,Kd,[30],≥ 20 µM
same,Kd,[31],≥ 20 µM
same,Kd,[32],≥ 20 µM
YLLPSRGPKL,Kd,[2]; source organism: Hepatitis C virus subtype 2b,0.646 µM
YLSTERDHV,Kd,[2]; source organism: Variola virus,0.1 µM
